B1: MICOS complex subunit MIC19 (Saccharomyces cerevisiae), P43594 (parent)
chain: MGSNTSKVGAGAEKQQVYTPLTQIDFSQSLVSQLDSSKESDYVTKQNAEKFIEKKVSQRLSNLEVETLKKFEDTLNNSLLSDDDKDAVDGISSSSLNNQIESLNKKLTLFDQLELQKLEKYGGAKGKSDKKTDNGSISIKAKLTECLLANKGKPLNCYEEMEEFKKLVMG
partner: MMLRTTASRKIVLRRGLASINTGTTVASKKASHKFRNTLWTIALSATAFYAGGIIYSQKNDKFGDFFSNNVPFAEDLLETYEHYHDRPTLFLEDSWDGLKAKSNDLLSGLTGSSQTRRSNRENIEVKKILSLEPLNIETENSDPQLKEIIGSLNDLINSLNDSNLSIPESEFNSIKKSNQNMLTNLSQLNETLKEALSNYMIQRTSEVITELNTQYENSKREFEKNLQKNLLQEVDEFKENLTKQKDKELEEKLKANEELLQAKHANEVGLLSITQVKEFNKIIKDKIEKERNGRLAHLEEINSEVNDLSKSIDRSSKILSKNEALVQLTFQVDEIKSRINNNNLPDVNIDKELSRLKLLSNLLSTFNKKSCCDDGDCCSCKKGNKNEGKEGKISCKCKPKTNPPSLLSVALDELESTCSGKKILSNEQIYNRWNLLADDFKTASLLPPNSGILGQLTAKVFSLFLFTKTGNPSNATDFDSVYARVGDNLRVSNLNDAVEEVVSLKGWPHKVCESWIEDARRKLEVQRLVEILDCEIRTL

Variants of: B1
Conditions: with mic60_yeast MIC60, P36112

| effect of a mutation on the interaction | Variant |
| --- | --- |
| with no effect | MGSNTSKVGAGAEKQQVYTPLTQIDFSQSLVSQLDSSKESDYVTKQNAEKFIEKKVSQRLSNLEVETLKKFEDTLNNSLLSDDDKDAVDGISSSSLNNQIESLNKKLTLFDQLELQKLEKYGGAKGKSDKKTDNGSISIKAKLTESLLANKGKPLNCYEEMEEFKKLVMG [C146S] |
| decreasing interaction strength | MGSNTSKVGAGAEKQQVYTPLTQIDFSQSLVSQLDSSKESDYVTKQNAEKFIEKKVSQRLSNLEVETLKKFEDTLNNSLLSDDDKDAVDGISSSSLNNQIESLNKKLTLFDQLELQKLEKYGGAKGKSDKKTDNGSISIKAKLTECLLANKGKPLNSYEEMEEFKKLVMG [C157S] |
